Reference: patent publication US20180155451A1 (published 2018)

T1: FcγRIIb extracellular domain with C-terminal His tag (human, UniProt P31994 43-217)
T1 construct: extracellular domain; also called FcgRIIb; 2b; not shown: His tag at the C terminus
T1 sequence (looked up): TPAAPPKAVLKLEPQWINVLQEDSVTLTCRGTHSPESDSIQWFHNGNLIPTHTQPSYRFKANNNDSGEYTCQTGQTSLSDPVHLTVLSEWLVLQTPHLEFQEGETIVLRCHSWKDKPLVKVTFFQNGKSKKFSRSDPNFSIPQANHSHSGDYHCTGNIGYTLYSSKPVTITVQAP


Experiments:
[1] = molecular target: T1, FcγRIIb extracellular domain with …; assay: SPR (Biacore), antibody captured, FcγR as analyte; He Ab binding / GpH7-A5/GpH7-B3/GpL16-k0 binding x 100
Method: (§1) The heterodimerized antibodies He Abs in which one of the H chains was introduced with an alteration were assayed for their binding activities to each activating FcγR and inhibitory FcγR according to the method described in Example 4. […] The activating FcγRs in FIGS. 26, 27, 28, and 29 are FcγRIa, FcγRIIa (R), FcγRIIa (H), and FcγRIIIa, respectively.
(§2) Analysis of interaction between objective antibody and the FcγR was carried out using Biacore T100 (GE Healthcare). HBS-EP+ (GE Healthcare) was used as the running buffer, and the measurement temperature was set to 25° C. Chips produced by immobilizing the antigen peptide by the amine coupling method to a Series S Sencor Chip CM5 (GE Healthcare), or alternatively, chips produced by allowing preliminarily biotinylated antigen peptides to interact with and immobilize onto a Series S Sensor Chip SA (certified) (GE Healthcare) were used. Antibodies of interest were captured onto an antigen peptide-immobilized chip, and allowed to interact to each FcγR diluted with running buffer. To regenerate and repeatedly use the chip, the antibodies captured on the chip were washed off by reacting 10 mM glycine-HCl, pH 1.5.

[2] = molecular target: T2, FcγRIIIa extracellular domain with C-terminal His tag (human, UniProt P08637 17-208); assay: as above
T2 construct: extracellular domain; also called FcgRIIIa; 3a; not shown: His tag at the C terminus
Method: as §1, §2

[3] = molecular target: T2, FcγRIIIa extracellular domain with …; assay: SPR (Biacore); ratio of He/Con_3a (FcγRIIIa) to He/Con_2b (FcγRIIb)
Method: as §1, §2

T2 sequence (P08637 17-208): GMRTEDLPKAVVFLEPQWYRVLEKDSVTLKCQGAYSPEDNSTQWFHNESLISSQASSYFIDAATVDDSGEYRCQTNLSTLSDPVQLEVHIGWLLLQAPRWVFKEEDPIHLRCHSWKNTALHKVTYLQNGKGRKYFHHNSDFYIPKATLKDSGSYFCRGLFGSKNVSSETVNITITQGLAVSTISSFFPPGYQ

Row | He/Con_2b (IIb binding) [1] | He/Con_3a (IIIa binding) [2] | He_3a/2b (IIIa/IIb) [3] [ratio] | Binder
1 | 16.9 relative, control = 100 | 29.6 relative, control = 100 | 1.76 | GpH7-A5/GpH7-B3 variant P329_11K/GpL16-k0 (antibody, human IgG1, kappa, position is EU numbering; also called He Ab) heavy 1: not shown heavy 2: not shown light: DIVMTQSPLSLPVTPGEPASISCQASESLVHSNRNTYLHWYLQKPGQSPQLLIYKVSNRFSGVPDRFSGSGSGTDFTLKISRVEAEDVGVYYCSQNTHVPPTFGQGTKVEIERTVAAPSVFIFPPSDEQLKSGTASVVCLLNNFYPREAKVQWKVDNALQSGNSQESVTEQDSKDSTYSLSSTLTLSKADYEKHKVYACEVTHQGLSSPVTKSFNRGEC
2 | 65.4 relative, control = 100 | 82.5 relative, control = 100 | 1.26 | GpH7-A5/GpH7-B3 variant S298_04F/GpL16-k0 (antibody, human IgG1, kappa, position is EU numbering; also called He Ab) heavy 1: not shown heavy 2: not shown light: DIVMTQSPLSLPVTPGEPASISCQASESLVHSNRNTYLHWYLQKPGQSPQLLIYKVSNRFSGVPDRFSGSGSGTDFTLKISRVEAEDVGVYYCSQNTHVPPTFGQGTKVEIERTVAAPSVFIFPPSDEQLKSGTASVVCLLNNFYPREAKVQWKVDNALQSGNSQESVTEQDSKDSTYSLSSTLTLSKADYEKHKVYACEVTHQGLSSPVTKSFNRGEC
3 | 64.5 relative, control = 100 | 109 relative, control = 100 | 1.69 | GpH7-A5/GpH7-B3 variant S298_03V/GpL16-k0 (antibody, human IgG1, kappa, position is EU numbering; also called He Ab) heavy 1: not shown heavy 2: not shown light: DIVMTQSPLSLPVTPGEPASISCQASESLVHSNRNTYLHWYLQKPGQSPQLLIYKVSNRFSGVPDRFSGSGSGTDFTLKISRVEAEDVGVYYCSQNTHVPPTFGQGTKVEIERTVAAPSVFIFPPSDEQLKSGTASVVCLLNNFYPREAKVQWKVDNALQSGNSQESVTEQDSKDSTYSLSSTLTLSKADYEKHKVYACEVTHQGLSSPVTKSFNRGEC
4 | 64.9 relative, control = 100 | 81.6 relative, control = 100 | 1.26 | GpH7-A5/GpH7-B3 variant Q295_18N/GpL16-k0 (antibody, human IgG1, kappa, position is EU numbering; also called He Ab) heavy 1: not shown heavy 2: not shown light: DIVMTQSPLSLPVTPGEPASISCQASESLVHSNRNTYLHWYLQKPGQSPQLLIYKVSNRFSGVPDRFSGSGSGTDFTLKISRVEAEDVGVYYCSQNTHVPPTFGQGTKVEIERTVAAPSVFIFPPSDEQLKSGTASVVCLLNNFYPREAKVQWKVDNALQSGNSQESVTEQDSKDSTYSLSSTLTLSKADYEKHKVYACEVTHQGLSSPVTKSFNRGEC
5 | 48.3 relative, control = 100 | 66.7 relative, control = 100 | 1.38 | GpH7-A5/GpH7-B3 variant S298_09D/GpL16-k0 (antibody, human IgG1, kappa, position is EU numbering; also called He Ab) heavy 1: not shown heavy 2: not shown light: DIVMTQSPLSLPVTPGEPASISCQASESLVHSNRNTYLHWYLQKPGQSPQLLIYKVSNRFSGVPDRFSGSGSGTDFTLKISRVEAEDVGVYYCSQNTHVPPTFGQGTKVEIERTVAAPSVFIFPPSDEQLKSGTASVVCLLNNFYPREAKVQWKVDNALQSGNSQESVTEQDSKDSTYSLSSTLTLSKADYEKHKVYACEVTHQGLSSPVTKSFNRGEC
6 | 78.3 relative, control = 100 | 104 relative, control = 100 | 1.33 | GpH7-A5/GpH7-B3 variant S324_02A/GpL16-k0 (antibody, human IgG1, kappa, position is EU numbering; also called He Ab) heavy 1: not shown heavy 2: not shown light: DIVMTQSPLSLPVTPGEPASISCQASESLVHSNRNTYLHWYLQKPGQSPQLLIYKVSNRFSGVPDRFSGSGSGTDFTLKISRVEAEDVGVYYCSQNTHVPPTFGQGTKVEIERTVAAPSVFIFPPSDEQLKSGTASVVCLLNNFYPREAKVQWKVDNALQSGNSQESVTEQDSKDSTYSLSSTLTLSKADYEKHKVYACEVTHQGLSSPVTKSFNRGEC
7 | 77.9 relative, control = 100 | 113 relative, control = 100 | 1.45 | GpH7-A5/GpH7-B3 variant S298_14T/GpL16-k0 (antibody, human IgG1, kappa, position is EU numbering; also called He Ab) heavy 1: not shown heavy 2: not shown light: DIVMTQSPLSLPVTPGEPASISCQASESLVHSNRNTYLHWYLQKPGQSPQLLIYKVSNRFSGVPDRFSGSGSGTDFTLKISRVEAEDVGVYYCSQNTHVPPTFGQGTKVEIERTVAAPSVFIFPPSDEQLKSGTASVVCLLNNFYPREAKVQWKVDNALQSGNSQESVTEQDSKDSTYSLSSTLTLSKADYEKHKVYACEVTHQGLSSPVTKSFNRGEC
8 | 81.1 relative, control = 100 | 105 relative, control = 100 | 1.29 | GpH7-A5/GpH7-B3 variant S324_01G/GpL16-k0 (antibody, human IgG1, kappa, position is EU numbering; also called He Ab) heavy 1: not shown heavy 2: not shown light: DIVMTQSPLSLPVTPGEPASISCQASESLVHSNRNTYLHWYLQKPGQSPQLLIYKVSNRFSGVPDRFSGSGSGTDFTLKISRVEAEDVGVYYCSQNTHVPPTFGQGTKVEIERTVAAPSVFIFPPSDEQLKSGTASVVCLLNNFYPREAKVQWKVDNALQSGNSQESVTEQDSKDSTYSLSSTLTLSKADYEKHKVYACEVTHQGLSSPVTKSFNRGEC
9 | 63.5 relative, control = 100 | 76.5 relative, control = 100 | 1.2 | GpH7-A5/GpH7-B3 variant S298_16H/GpL16-k0 (antibody, human IgG1, kappa, position is EU numbering; also called He Ab) heavy 1: not shown heavy 2: not shown light: DIVMTQSPLSLPVTPGEPASISCQASESLVHSNRNTYLHWYLQKPGQSPQLLIYKVSNRFSGVPDRFSGSGSGTDFTLKISRVEAEDVGVYYCSQNTHVPPTFGQGTKVEIERTVAAPSVFIFPPSDEQLKSGTASVVCLLNNFYPREAKVQWKVDNALQSGNSQESVTEQDSKDSTYSLSSTLTLSKADYEKHKVYACEVTHQGLSSPVTKSFNRGEC
10 | 70.6 relative, control = 100 | 96.4 relative, control = 100 | 1.37 | GpH7-A5/GpH7-B3 variant S298_07I/GpL16-k0 (antibody, human IgG1, kappa, position is EU numbering; also called He Ab) heavy 1: not shown heavy 2: not shown light: DIVMTQSPLSLPVTPGEPASISCQASESLVHSNRNTYLHWYLQKPGQSPQLLIYKVSNRFSGVPDRFSGSGSGTDFTLKISRVEAEDVGVYYCSQNTHVPPTFGQGTKVEIERTVAAPSVFIFPPSDEQLKSGTASVVCLLNNFYPREAKVQWKVDNALQSGNSQESVTEQDSKDSTYSLSSTLTLSKADYEKHKVYACEVTHQGLSSPVTKSFNRGEC
11 | 62.7 relative, control = 100 | 76.4 relative, control = 100 | 1.22 | GpH7-A5/GpH7-B3 variant Q295_16H/GpL16-k0 (antibody, human IgG1, kappa, position is EU numbering; also called He Ab) heavy 1: not shown heavy 2: not shown light: DIVMTQSPLSLPVTPGEPASISCQASESLVHSNRNTYLHWYLQKPGQSPQLLIYKVSNRFSGVPDRFSGSGSGTDFTLKISRVEAEDVGVYYCSQNTHVPPTFGQGTKVEIERTVAAPSVFIFPPSDEQLKSGTASVVCLLNNFYPREAKVQWKVDNALQSGNSQESVTEQDSKDSTYSLSSTLTLSKADYEKHKVYACEVTHQGLSSPVTKSFNRGEC
12 | 56.9 relative, control = 100 | 86.1 relative, control = 100 | 1.51 | GpH7-A5/GpH7-B3 variant Q295_13S/GpL16-k0 (antibody, human IgG1, kappa, position is EU numbering; also called He Ab) heavy 1: not shown heavy 2: not shown light: DIVMTQSPLSLPVTPGEPASISCQASESLVHSNRNTYLHWYLQKPGQSPQLLIYKVSNRFSGVPDRFSGSGSGTDFTLKISRVEAEDVGVYYCSQNTHVPPTFGQGTKVEIERTVAAPSVFIFPPSDEQLKSGTASVVCLLNNFYPREAKVQWKVDNALQSGNSQESVTEQDSKDSTYSLSSTLTLSKADYEKHKVYACEVTHQGLSSPVTKSFNRGEC
13 | 77.4 relative, control = 100 | 99.3 relative, control = 100 | 1.28 | GpH7-A5/GpH7-B3 variant S324_10E/GpL16-k0 (antibody, human IgG1, kappa, position is EU numbering; also called He Ab) heavy 1: not shown heavy 2: not shown light: DIVMTQSPLSLPVTPGEPASISCQASESLVHSNRNTYLHWYLQKPGQSPQLLIYKVSNRFSGVPDRFSGSGSGTDFTLKISRVEAEDVGVYYCSQNTHVPPTFGQGTKVEIERTVAAPSVFIFPPSDEQLKSGTASVVCLLNNFYPREAKVQWKVDNALQSGNSQESVTEQDSKDSTYSLSSTLTLSKADYEKHKVYACEVTHQGLSSPVTKSFNRGEC
14 | 17.6 relative, control = 100 | 26.7 relative, control = 100 | 1.52 | GpH7-A5/GpH7-B3 variant P329_12R/GpL16-k0 (antibody, human IgG1, kappa, position is EU numbering; also called He Ab) heavy 1: not shown heavy 2: not shown light: DIVMTQSPLSLPVTPGEPASISCQASESLVHSNRNTYLHWYLQKPGQSPQLLIYKVSNRFSGVPDRFSGSGSGTDFTLKISRVEAEDVGVYYCSQNTHVPPTFGQGTKVEIERTVAAPSVFIFPPSDEQLKSGTASVVCLLNNFYPREAKVQWKVDNALQSGNSQESVTEQDSKDSTYSLSSTLTLSKADYEKHKVYACEVTHQGLSSPVTKSFNRGEC
15 | 66.8 relative, control = 100 | 115 relative, control = 100 | 1.72 | GpH7-A5/GpH7-B3 variant Q295_14T/GpL16-k0 (antibody, human IgG1, kappa, position is EU numbering; also called He Ab) heavy 1: not shown heavy 2: not shown light: DIVMTQSPLSLPVTPGEPASISCQASESLVHSNRNTYLHWYLQKPGQSPQLLIYKVSNRFSGVPDRFSGSGSGTDFTLKISRVEAEDVGVYYCSQNTHVPPTFGQGTKVEIERTVAAPSVFIFPPSDEQLKSGTASVVCLLNNFYPREAKVQWKVDNALQSGNSQESVTEQDSKDSTYSLSSTLTLSKADYEKHKVYACEVTHQGLSSPVTKSFNRGEC
16 | 61.4 relative, control = 100 | 85.6 relative, control = 100 | 1.39 | GpH7-A5/GpH7-B3 variant S298_15Y/GpL16-k0 (antibody, human IgG1, kappa, position is EU numbering; also called He Ab) heavy 1: not shown heavy 2: not shown light: DIVMTQSPLSLPVTPGEPASISCQASESLVHSNRNTYLHWYLQKPGQSPQLLIYKVSNRFSGVPDRFSGSGSGTDFTLKISRVEAEDVGVYYCSQNTHVPPTFGQGTKVEIERTVAAPSVFIFPPSDEQLKSGTASVVCLLNNFYPREAKVQWKVDNALQSGNSQESVTEQDSKDSTYSLSSTLTLSKADYEKHKVYACEVTHQGLSSPVTKSFNRGEC
